Reference: US20260146107A1 (ALLIGATOR BIOSCIENCE, published 2026)

T1: human CEACAM1, recombinant (R&D Systems #2244-CM-050) (human, UniProt P13688 35-428)
T1 construct: also called hCEACAM-1
T1 sequence (looked up): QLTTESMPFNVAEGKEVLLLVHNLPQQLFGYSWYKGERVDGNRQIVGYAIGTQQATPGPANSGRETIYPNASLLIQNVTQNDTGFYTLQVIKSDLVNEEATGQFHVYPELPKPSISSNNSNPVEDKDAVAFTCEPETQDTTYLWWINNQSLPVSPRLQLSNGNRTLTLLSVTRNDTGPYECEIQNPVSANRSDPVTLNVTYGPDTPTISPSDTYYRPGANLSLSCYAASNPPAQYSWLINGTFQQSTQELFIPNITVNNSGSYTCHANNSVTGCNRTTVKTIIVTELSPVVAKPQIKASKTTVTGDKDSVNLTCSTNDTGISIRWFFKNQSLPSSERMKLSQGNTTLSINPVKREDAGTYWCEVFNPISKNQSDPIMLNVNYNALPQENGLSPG

T2: human CEACAM5, recombinant (R&D Systems #4128-CM-050) (human, UniProt P06731 35-685)
T2 construct: Bought; coated in ELISA and used as monomeric analyte in Octet; also called hCEACAM-5; Human CEACAM5-His; not shown: His tag
T2 sequence (looked up): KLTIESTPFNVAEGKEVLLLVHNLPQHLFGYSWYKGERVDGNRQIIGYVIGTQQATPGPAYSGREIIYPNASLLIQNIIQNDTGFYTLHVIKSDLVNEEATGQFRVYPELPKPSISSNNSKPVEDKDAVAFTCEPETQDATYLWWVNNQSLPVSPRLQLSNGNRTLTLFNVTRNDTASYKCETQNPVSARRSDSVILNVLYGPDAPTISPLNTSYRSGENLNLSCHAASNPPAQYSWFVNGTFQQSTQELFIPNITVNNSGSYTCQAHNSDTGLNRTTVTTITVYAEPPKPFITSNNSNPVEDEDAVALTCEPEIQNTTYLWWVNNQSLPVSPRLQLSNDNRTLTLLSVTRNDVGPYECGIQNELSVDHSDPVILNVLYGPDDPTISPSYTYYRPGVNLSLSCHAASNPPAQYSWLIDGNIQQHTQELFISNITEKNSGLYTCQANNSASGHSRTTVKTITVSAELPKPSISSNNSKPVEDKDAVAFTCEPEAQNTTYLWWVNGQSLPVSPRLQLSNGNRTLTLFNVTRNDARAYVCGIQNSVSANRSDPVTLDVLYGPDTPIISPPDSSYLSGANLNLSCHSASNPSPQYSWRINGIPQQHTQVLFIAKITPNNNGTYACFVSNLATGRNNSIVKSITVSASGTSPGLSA


Tests used:
[1] = biological target: human CD40 expressed on cells (CD40 reporter cells, HEK Blue CD40L cells, primary B cells, tumour APCs) (human, UniProt P25942 21-277); assay: cell-based or functional assay
Chain of human CD40 expressed on cells (CD40 reporter cells, HEK Blue CD40L cells, primary B cells, tumour APCs) (P25942 21-277): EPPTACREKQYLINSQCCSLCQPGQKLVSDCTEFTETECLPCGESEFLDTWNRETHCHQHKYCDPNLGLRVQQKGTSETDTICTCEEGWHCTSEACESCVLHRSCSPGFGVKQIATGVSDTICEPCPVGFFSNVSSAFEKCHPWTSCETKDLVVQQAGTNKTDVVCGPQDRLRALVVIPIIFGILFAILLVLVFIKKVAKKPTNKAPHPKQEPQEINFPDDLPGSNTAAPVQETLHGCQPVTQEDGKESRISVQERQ

[2] = biological target: T1, human CEACAM1, recombinant (R&D Systems …); assay: ELISA, antigen coated at 0.5 µg/mL, IgG1 antibody at 10 µg/ml, anti-human kappa-HRP, luminescence
Description: 96-well plates were coated with 0.5 μg/mL antigen, hCEACAM-5 (4128-CM-050, R&D Systems), hCEACAM-1 (2244-CM-050, R&D Systems), hCEACAM-6(3934-CM-050, R&D Systems) or CEACAM-8 (9639-CM-050, R&D Systems) in PBS over night at 4° C. After washing with PBS/0.05% Tween 20 (PBST), the plates were blocked with PBST, 2% BSA for at least 30 minutes at room temperature before a second round of washing. […] After washing, plates were incubated with 50 μl detection antibody (0.5 μg/ml HRP conjugated goat anti human-kappa light chain, #STAR127P, AbD Serotec). Finally, a final round of washing was performed and bound complexes detected using SuperSignal Pico Luminescent as substrate and luminescence signals were measured using Fluostar Optima.

[3] = biological target: T2, human CEACAM5, recombinant (R&D Systems …); assay: Octet BLI, IgG1 captured on AHC tips, CEACAM5-His in solution, 1:1 fit
Description: Kinetic measurements were performed in the Octet RED96 platform using several different setups. Monoclonal antibodies (listed in Table 9), serially diluted ½ starting at 100 nM, were captured to anti human IgG Fc Capture (AHC) Biosensor tips (Sartorius #18-5060). Human CEACAM5-His (R&D Systems #4128-CM-050) diluted in 1× kinetic buffer (Sartorius) at 100 nM was then added. Binding kinetics was studied in 1× kinetic buffer where association was allowed for 300 sec followed by dissociation for 600 sec. Sensor tips were regenerated with 10 mM Glycine pH 1.7. Data generated were referenced by subtracting blank or parallel buffer blank, the baseline was aligned to the y-axis, inter-step correction by alignment against dissociation was performed and the data was smoothed by Savitzky-Golay filter in the data analysis software (v9.0.0.14). The processed data was fitted using a 1:1 Langmuir binding model with R² or X² as a measurement of fitting accuracy.

Row | Binder | EC50 of SEAP release, HEK Blue CD40L reporter cells, bsAb crosslinked to CHO-CEACAM5 cells, 0 Raji sink cells/well [1] | EC50 of SEAP release, same assay, 10 000 Raji sink cells/well [1] | EC50 of SEAP release, same assay, 30 000 Raji sink cells/well [1] | EC50 of SEAP release, same assay, 90 000 Raji sink cells/well [1] | binding result [2] | Kd [3] | koff [3] | kon [3]
1 | Multi42 (bispecific antibody, human IgG1, kappa, L234A L235A) chain 1: not shown chain 2: EIVLTQSPGTLSLSPGERATLSCRASQSVSSSYLAWYQEKPGQAPRLLIYGASSRATGIPDRFSGSGSGTDFTLTISRLEPEDFAVYYCQQYWYPLTFGQGTKLEIKRTVAAPSVFIFPPSDEQLKSGTASVVCYLNNFYPREAKVQWKVDNALQSGNSQESVTEQDSKDSTYSLWSTLTLSKADYEKHKVYACEVTHQGLSSPVTKSFNRGEC chain 3: EVQLLESGGGLVQPGGSLRLSCAASGFTFSTYGMHWVREAPGKGLEWLSYISGGSSYIFYADSVKGRFTISRDNSKNTLYLQMNSLRAEDTAVYYCARILRGGSGMDLWGQGTLVTVSSASTKGPSVFPLAPSSKSTSGGTAALGCLVKDYFPEPVTVSWNSGALTSGVHTFPAVLQSSGLYSLTSVVEVPSSSLGTQTYICNVNHKPSNTKVDKKVEPKSC | 0.04 nM | 0.06 nM | 0.11 nM | 0.36 nM | – | – | – | –
2 | AC_05081 (antibody, human IgG1, kappa, V domains shown) VH: EVQLLESGGGLVQPGGSLRLSCAASGFTFSSSYMGWVRQAPGKGLEWVSSIGSGSYSTSYADSVKGRFTISRDNSKNTLYLQMNSLRAEDTAVYYCARYPSVPFQPHLDYWGQGTLVTVSS VL: DIQMTQSPSSLSASVGDRVTITCRASQSISSYLNWYQQKPGKAPKLLIYAASSLQSGVPSRFSGSGSGTDFTLTISSLQPEDFATYYCQQAGNPHTFGQGTKLEIKR | – | – | – | – | no binding (tested: 10 µg/ml) | 100 nM | 0.008 s⁻¹ | 60000 M⁻¹ s⁻¹
3 | AC_05080 (antibody, V domains shown) VH: EVQLLESGGGLVQPGGSLRLSCAASGFTFSSSYMGWVRQAPGKGLEWVSSIGSGSYSTSYADSVKGRFTISRDNSKNTLYLQMNSLRAEDTAVYYCARYPSVPFPPLLDYWGQGTLVTVSS VL: DIQMTQSPSSLSASVGDRVTITCRASQSISSYLNWYQQKPGKAPKLLIYAASSLQSGVPSRFSGSGSGTDFTLTISSLQPEDFATYYCQQAGNPHTFGQGTKLEIK | – | – | – | – | binds | 0.008 nM | 2e-06 s⁻¹ | 200000 M⁻¹ s⁻¹
4 | AC_05059 (antibody, human IgG1, kappa, V domains shown) VH: EVQLLESGGGLVQPGGSLRLSCAASGFTFSSSYMGWVRQAPGKGLEWVSSIGSGSYSTSYADSVKGRFTISRDNSKNTLYLQMNSLRAEDTAVYYCARYPSVPFPPHLDYWGQGTLVTVSS VL: DIQMTQSPSSLSASVGDRVTITCRASQSISSYLNWYQQKPGKAPKLLIYAASSLQSGVPSRFSGSGSGTDFTLTISSLQPEDFATYYCQQAGNPHTFGQGTKLEIKR | – | – | – | – | – | < 0.001 nM | < 1e-07 s⁻¹ | 300000 M⁻¹ s⁻¹
5 | AC_05088 (antibody, human IgG1, kappa, V domains shown) VH: EVQLLESGGGLVQPGGSLRLSCAASGFTFSSSYMGWVRQAPGKGLEWVSSIGSGSYSTSYADSVKGRFTISRDNSKNTLYLQMNSLRAEDTAVYYCARYPSVLFPPHLDYWGQGTLVTVSS VL: DIQMTQSPSSLSASVGDRVTITCRASQSISSYLNWYQQKPGKAPKLLIYAASSLQSGVPSRFSGSGSGTDFTLTISSLQPEDFATYYCQQAGNPHTFGQGTKLEIKR | – | – | – | – | no binding (tested: 10 µg/ml) | 20 nM | 0.03 s⁻¹ | 1e+06 M⁻¹ s⁻¹
6 | AC_05089 (antibody, human IgG1, kappa, V domains shown) VH: EVQLLESGGGLVQPGGSLRLSCAASGFTFSSSYMGWVRQAPGKGLEWVSSIGSGSYSTSYADSVKGRFTISRDNSKNTLYLQMNSLRAEDTAVYYCARYPSVPFPHHLDYWGQGTLVTVSS VL: DIQMTQSPSSLSASVGDRVTITCRASQSISSYLNWYQQKPGKAPKLLIYAASSLQSGVPSRFSGSGSGTDFTLTISSLQPEDFATYYCQQAGNPHTFGQGTKLEIKR | – | – | – | – | no binding (tested: 10 µg/ml) | 40 nM | 0.01 s⁻¹ | 300000 M⁻¹ s⁻¹
7 | AC_05090 (antibody, human IgG1, kappa, V domains shown) VH: EVQLLESGGGLVQPGGSLRLSCAASGFTFSSSYMGWVRQAPGKGLEWVSSIGSGSYSTSYADSVKGRFTISRDNSKNTLYLQMNSLRAEDTAVYYCARYPSVPFPLHLDYWGQGTLVTVSS VL: DIQMTQSPSSLSASVGDRVTITCRASQSISSYLNWYQQKPGKAPKLLIYAASSLQSGVPSRFSGSGSGTDFTLTISSLQPEDFATYYCQQAGNPHTFGQGTKLEIKR | – | – | – | – | no binding (tested: 10 µg/ml) | 20 nM | 0.004 s⁻¹ | 300000 M⁻¹ s⁻¹
8 | AC_05091 (antibody, human IgG1, kappa, V domains shown) VH: EVQLLESGGGLVQPGGSLRLSCAASGFTFSSSYMGWVRQAPGKGLEWVSSIGSGSYSTSYADSVKGRFTISRDNSKNTLYLQMNSLRAEDTAVYYCARYPSVPFPPHFDYWGQGTLVTVSS VL: DIQMTQSPSSLSASVGDRVTITCRASQSISSYLNWYQQKPGKAPKLLIYAASSLQSGVPSRFSGSGSGTDFTLTISSLQPEDFATYYCQQAGNPHTFGQGTKLEIKR | – | – | – | – | no binding (tested: 10 µg/ml) | 2 nM | 0.0003 s⁻¹ | 200000 M⁻¹ s⁻¹
9 | AC_05093 (antibody, human IgG1, kappa, V domains shown) VH: EVQLLESGGGLVQPGGSLRLSCAASGFTFSSSYMGWVRQAPGKGLEWVSSIGSGSYSTSYADSVKGRFTISRDNSKNTLYLQMNSLRAEDTAVYYCARYPSVPFPPHVDYWGQGTLVTVSS VL: DIQMTQSPSSLSASVGDRVTITCRASQSISSYLNWYQQKPGKAPKLLIYAASSLQSGVPSRFSGSGSGTDFTLTISSLQPEDFATYYCQQAGNPHTFGQGTKLEIKR | – | – | – | – | no binding (tested: 10 µg/ml) | 0.4 nM | 0.0001 s⁻¹ | 300000 M⁻¹ s⁻¹
10 | AC_05094 (antibody, human IgG1, kappa, V domains shown) VH: EVQLLESGGGLVQPGGSLRLSCAASGFTFSSSYMGWVRQAPGKGLEWVSSIGSGSYSTSYADSVKGRFTISRDNSKNTLYLQMNSLRAEDTAVYYCARYPSVPFPPHWDYWGQGTLVTVSS VL: DIQMTQSPSSLSASVGDRVTITCRASQSISSYLNWYQQKPGKAPKLLIYAASSLQSGVPSRFSGSGSGTDFTLTISSLQPEDFATYYCQQAGNPHTFGQGTKLEIKR | – | – | – | – | no binding (tested: 10 µg/ml) | 50 nM | 0.0008 s⁻¹ | 20000 M⁻¹ s⁻¹
11 | AC_05097 (antibody, human IgG1, kappa, V domains shown) VH: EVQLLESGGGLVQPGGSLRLSCAASGFTFSSSYMGWVRQAPGKGLEWVSSIGSGSYSTSYADSVKGRFTISRDNSKNTLYLQMNSLRAEDTAVYYCARYPSVPFSPHLDYWGQGTLVTVSS VL: DIQMTQSPSSLSASVGDRVTITCRASQSISSYLNWYQQKPGKAPKLLIYAASSLQSGVPSRFSGSGSGTDFTLTISSLQPEDFATYYCQQAGNPHTFGQGTKLEIKR | – | – | – | – | no binding (tested: 10 µg/ml) | 0.07 nM | 2e-05 s⁻¹ | 200000 M⁻¹ s⁻¹
12 | AC_05099 (antibody, V domains shown) VH: not shown VL: DIQMTQSPSSLSASVGDRVTITCRASQSISSYLNWYQQKPGKAPKLLIYAASSLQSGVPSRFSGSGSGTDFTLTISSLQPEDFATYYCQQAGNPHTFGQGTKLEIK | – | – | – | – | no binding (tested: 10 µg/ml) | – | – | –
